The experiment has as its target human FGFR1c/human β-Klotho complex (FGF21 receptor) (human) (UniProt P11362). As to the kind of experiment: cell-based or functional assay.

human FGF21 (ligand) came in with an EC50, pERK Human Adipocyte Assay of 0.623 nM.

These data come from patent publication US20120328616A1.
